Several values for one entry are separate records, joined by “and”; a condition that tells them apart may be missing. Identical values can stand only once.
T1: CTLA4 antigen on the surface of 293F-CTLA4 host cells (UniProt P16410 36-223, limits assumed)
T1 construct: whole, on cells
T1 sequence (looked up): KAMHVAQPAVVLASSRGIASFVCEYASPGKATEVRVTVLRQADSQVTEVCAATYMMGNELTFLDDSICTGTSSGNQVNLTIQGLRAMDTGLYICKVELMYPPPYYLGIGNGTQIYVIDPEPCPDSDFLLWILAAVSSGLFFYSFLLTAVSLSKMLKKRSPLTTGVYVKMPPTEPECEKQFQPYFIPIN

T2: human CTLA4 (human, UniProt P16410 36-161, limits assumed)
T2 construct: also called human CTLA4 antigen; CTLA4 protein
T2 sequence (looked up): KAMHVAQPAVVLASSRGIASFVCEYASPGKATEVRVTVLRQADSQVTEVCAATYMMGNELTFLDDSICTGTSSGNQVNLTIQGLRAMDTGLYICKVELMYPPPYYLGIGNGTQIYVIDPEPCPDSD

T3: CTLA4 antigen (NCBI Gene ID: 1493) obtained by TEV protease cleavage of CTLA4-mFc (Homo sapiens (Human), UniProt P16410 37-161)
T3 construct: also called the antigen CTLA4
T3 sequence: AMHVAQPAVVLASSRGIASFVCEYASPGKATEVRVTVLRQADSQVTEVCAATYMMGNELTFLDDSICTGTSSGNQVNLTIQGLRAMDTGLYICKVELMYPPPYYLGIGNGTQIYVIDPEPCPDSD


Key:
CTLA4-mFc [1] = molecular target: T4, CTLA4-mFc; assay: competitive ELISA, competitor B7-1
T4 construct: also called CTLA4ECD-mFc fusion protein; CTLA4 antigen
Protocol: (§1) After incubation at 37° C. for 40 minutes, the enzyme conjugated secondary antibody was added. After incubation at 37° C. for 30 minutes, the absorbance at 450 nm was detected on an ELISA plate reader.
Target sequence in this assay (chain, as listed by the source limits assumed): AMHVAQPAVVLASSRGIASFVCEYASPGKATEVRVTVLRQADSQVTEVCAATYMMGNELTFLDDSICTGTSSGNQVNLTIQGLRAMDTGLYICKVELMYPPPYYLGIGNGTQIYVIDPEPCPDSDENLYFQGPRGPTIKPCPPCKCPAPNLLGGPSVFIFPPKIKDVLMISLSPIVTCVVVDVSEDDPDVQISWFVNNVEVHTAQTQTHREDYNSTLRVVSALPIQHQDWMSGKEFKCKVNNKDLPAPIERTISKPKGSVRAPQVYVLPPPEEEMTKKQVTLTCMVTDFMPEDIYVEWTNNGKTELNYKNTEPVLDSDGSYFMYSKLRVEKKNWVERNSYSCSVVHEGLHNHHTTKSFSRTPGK

CTLA4-mFc [2] = molecular target: T4, CTLA4-mFc; assay: competitive ELISA, competitor B7-2
Protocol: as §1
Target sequence in this assay (chain, as listed by the source limits assumed): as above

CTLA4-mFc [3] = molecular target: T4, CTLA4-mFc; assay: competitive ELISA, CTLA4-mFc coated, competitor B7/2-His; antibody 3 µg/ml diluted 1:27
Protocol: as §1

[4] = molecular target: T1, CTLA4 antigen on the surface of …; assay: flow cytometry, 293F-CTLA4 cells
Protocol: (§2) After addition of 300 μL PBS, the fluorescent signal was detected using the FITC channel on the flow cytometer.

human CTLA4 [5] = molecular target: T2, human CTLA4; assay: ELISA on coated CTLA4, source Human
Protocol: (§3) The ELISA plate was coated with CTLA4 at 4° C. over night. […] The enzyme conjugated secondary antibody was added for incubation for 30 min. Then, the absorbance at 450 nm was determined on an ELISA plate reader.

monkey CTLA4-hFc [6] = molecular target: T5, monkey CTLA4-hFc (monkey); assay: ELISA on coated CTLA4, source Monkey
T5 construct: also called monkey CTLA4 antigen
Protocol: as §3

[7] = molecular target: T1, CTLA4 antigen on the surface of …; assay: flow cytometry, 293F-CTLA4 cells; antibody 1 nM
Protocol: as §2

[8] = molecular target: T1, CTLA4 antigen on the surface of …; assay: flow cytometry, 293F-CTLA4 cells; antibody 5 nM
Protocol: as §2

[9] = molecular target: T1, CTLA4 antigen on the surface of …; assay: flow cytometry, 293F-CTLA4 cells; antibody 10 nM
Protocol: as §2

[10] = molecular target: T1, CTLA4 antigen on the surface of …; assay: flow cytometry, 293F-CTLA4 cells; antibody 25 nM
Protocol: as §2

[11] = molecular target: T1, CTLA4 antigen on the surface of …; assay: flow cytometry, 293F-CTLA4 cells; antibody 0.1 nM
Protocol: as §2

[12] = molecular target: T1, CTLA4 antigen on the surface of …; assay: flow cytometry, 293F-CTLA4 cells; antibody 0.01 nM
Protocol: as §2

[13] = molecular target: T1, CTLA4 antigen on the surface of …; assay: flow cytometry, 293F-CTLA4 cells; antibody 0.001 nM
Protocol: as §2

[14] = molecular target: T3, CTLA4 antigen (NCBI Gene ID: 1493) …; assay: BLI (Fortebio), antibody on AR2G sensor, CTLA4 in solution
Protocol: 2. […] After equilibration in PBST, the CTLA4 antigen was added for binding. […] Dissociation occurred in PBST.

monkey CTLA4-hFc [15] = molecular target: T5, monkey CTLA4-hFc; assay: ELISA, coat monkey CTLA4-hFc 0.25 ug/ml; antibody 0 (blank)
Protocol: as §3

CTLA4-mFc [16] = molecular target: T4, CTLA4-mFc; assay: competitive ELISA, CTLA4-mFc coated, competitor B7/2-His; antibody 1 µg/ml
Protocol: as §1

CTLA4-mFc [17] = molecular target: T4, CTLA4-mFc; assay: competitive ELISA, B7/1-hFc coated (competitor), CTLA4-mFc added; antibody 5 µg/ml
Protocol: as §1

CTLA4-mFc [18] = molecular target: T4, CTLA4-mFc; assay: competitive ELISA, CTLA4-mFc coated, competitor B7/2-His; antibody 1 µg/ml diluted 1:3
Protocol: as §1

CTLA4-mFc [19] = molecular target: T4, CTLA4-mFc; assay: competitive ELISA, CTLA4-mFc coated, competitor B7/2-His; antibody 1 µg/ml diluted 1:81
Protocol: as §1

CTLA4-mFc [20] = molecular target: T4, CTLA4-mFc; assay: competitive ELISA, B7/1-hFc coated (competitor), CTLA4-mFc added; antibody 5 µg/ml diluted 1:3
Protocol: as §1

CTLA4-mFc [21] = molecular target: T4, CTLA4-mFc; assay: competitive ELISA, B7/1-hFc coated (competitor), CTLA4-mFc added; antibody 0 (no antibody)
Protocol: as §1

CTLA4-mFc [22] = molecular target: T4, CTLA4-mFc; assay: competitive ELISA, B7/1-hFc coated (competitor), CTLA4-mFc added; antibody 5 µg/ml diluted 1:9
Protocol: as §1

human CTLA4 [23] = molecular target: T2, human CTLA4; assay: ELISA, coat human CTLA4 0.5 ug/ml; antibody 0 (blank)
Protocol: as §3

CTLA4-mFc [24] = molecular target: T4, CTLA4-mFc; assay: competitive ELISA, competitor B7-2; control run with 8D2
CTLA4-mFc [25] = molecular target: T4, CTLA4-mFc; assay: competitive ELISA, competitor B7-1; control run with 8D2H1L1
CTLA4-mFc [26] = molecular target: T4, CTLA4-mFc; assay: competitive ELISA, competitor B7-1; control run with 8D2H2L2
CTLA4-mFc [27] = molecular target: T4, CTLA4-mFc; assay: competitive ELISA, competitor B7-1; control run with 8D2H3L3
CTLA4-mFc [28] = molecular target: T4, CTLA4-mFc; assay: competitive ELISA, competitor B7-2; control run with 8D2(Re)
CTLA4-mFc [29] = molecular target: T4, CTLA4-mFc; assay: competitive ELISA, competitor B7-2; control run with 8D2H1L1
CTLA4-mFc [30] = molecular target: T4, CTLA4-mFc; assay: competitive ELISA, competitor B7-2; control run with 8D2H2L2
CTLA4-mFc [31] = molecular target: T4, CTLA4-mFc; assay: competitive ELISA, competitor B7-2; control run with 8D2H3L3
CTLA4-mFc [32] = molecular target: T4, CTLA4-mFc; assay: competitive ELISA, competitor B7-1; control run with 8D2H2L15
CTLA4-mFc [33] = molecular target: T4, CTLA4-mFc; assay: competitive ELISA, competitor B7-1; control run with 8D2H2L17
CTLA4-mFc [34] = molecular target: T4, CTLA4-mFc; assay: competitive ELISA, competitor B7-2; control run with 8D2H2L15
CTLA4-mFc [35] = molecular target: T4, CTLA4-mFc; assay: competitive ELISA, competitor B7-2; control run with 8D2H2L17

Row | Binder | EC50 (CTLA4-mFc [1]) | EC50 (CTLA4-mFc [2]) | EC50 [4] | fluorescence intensity [7] | fluorescence intensity [8] | fluorescence intensity [9] | fluorescence intensity [10] | fluorescence intensity [11] | fluorescence intensity [12] | fluorescence intensity [13] | Kd [14] | koff [14] | kon [14] | absorbance at 450 nm (CTLA4-mFc [16]) | absorbance at 450 nm (CTLA4-mFc [18]) | also measured
1 | monoclonal antibody 8D2 (antibody, V domains shown, Mouse antibody purified from hybridoma supernatant; also called mAb 8D2; antibody secreted by the CTLA4-8D2 hybridoma cell line LT001) VH: EVKLDETGGGLVQPGRPMKLSCVASGFTFSDNWMNWVRQSPEKGLEWLAQIRNKPYNYETYYSDSVKGRFTISRDDSKSSVYLQMNNLRGEDMGIYYCTAQFAYWGQGTLVTVSA VL: DIQMTQSPASLSASVGETVTITCGTSENIYGGLNWYQRKQGKSPQLLIFGATNLADGMSSRFSGSGSGRQYSLKISSLHPDDVATYYCQNVLRSPFTFGSGTKLEI | 0.44 nM | 0.208 nM | – | – | – | – | – | – | – | – | – | – | – | – | – | absorbance at 450 nm (CTLA4-mFc [3]): 0.675
2 | humanized antibody 8D2H2L2 (antibody, V domains shown, also called 8D2H2L2(20150327); 8D2H2L2(20140422)) VH: EVQLVESGGGLVQPGGSMRLSCAASGFTFSDNWMNWVRQAPGKGLEWLAQIRNKPYNYETYYSASVKGRFTISRDDSKNSVYLQMNSLKTEDTGVYYCTAQFAYWGQGTLVTVSS VL: DIQMTQSPSSLSASVGDRVTITCRTSENIYGGLNWYQRKPGKSPKLLIYGATNLASGVSSRFSGSGSGTDYTLTISSLQPEDVATYYCQNVLRSPFTFGSGTKLEIK | – | – | 4.37 nM | 625 | 972 | 1160 | 1130 | 124 | 32.5 | 10.8 | 0.955 nM | 0.000388 s⁻¹ | 407000 M⁻¹ s⁻¹ | – | – | EC50 (human CTLA4 [5]): 0.12 nM and 0.082 nM and 0.118 nM; EC50 (monkey CTLA4-hFc [6]): 0.227 nM; absorbance at 450 nm (monkey CTLA4-hFc [15]): 0.048
3 | humanized antibody 8D2H2L15 (antibody, V domains shown) VH: EVQLVESGGGLVQPGGSMRLSCAASGFTFSDNWMNWVRQAPGKGLEWLAQIRNKPYNYETYYSASVKGRFTISRDDSKNSVYLQMNSLKTEDTGVYYCTAQFAYWGQGTLVTVSS VL: DIQMTQSPSSLSASVGDRVTITCRTSENIYGGLNWYQRKPGKSPKLLIYGATNLASGVSSRFSGSGSGTDYTLTISSLQPEDVATYYCQNVLSRHPGFGSGTKLEIK | 1.97 nM | 0.227 nM | – | – | – | – | – | – | – | – | – | – | – | 0.05 | 0.05 | absorbance at 450 nm (CTLA4-mFc [17]): 0.07; absorbance at 450 nm (CTLA4-mFc [19]): 0.75; absorbance at 450 nm (CTLA4-mFc [20]): 0.07
4 | humanized antibody 8D2H2L17 (antibody, V domains shown) VH: EVQLVESGGGLVQPGGSMRLSCAASGFTFSDNWMNWVRQAPGKGLEWLAQIRNKPYNYETYYSASVKGRFTISRDDSKNSVYLQMNSLKTEDTGVYYCTAQFAYWGQGTLVTVSS VL: DIQMTQSPSSLSASVGDRVTITCRTSENIYGGLNWYQRKPGKSPKLLIYGATNLASGVSSRFSGSGSGTDYTLTISSLQPEDVATYYCQNVLSSRPGFGSGTKLEIK | 1.79 nM | 0.296 nM | – | – | – | – | – | – | – | – | – | – | – | 0.05 | 0.05 | absorbance at 450 nm (CTLA4-mFc [21]): 1.18; absorbance at 450 nm (CTLA4-mFc [22]): 0.08
5 | humanized antibody 8D2H1L1 (antibody, V domains shown) VH: EVQLVESGGGLVQPGGSMRLSCAASGFTFSDNWMNWVRQAPGKGLEWLAQIRNKPYNYETYYSDSVKGRFTISRDDSKNSVYLQMNSLKTEDTGVYYCTAQFAYWGQGTLVTVSS VL: DIQMTQSPSSLSASVGDRVTITCRTSENIYGGLNWYQRKQGKSPKLLIYGATNLASGMSSRFSGSGSGTDYTLKISSLHPDDVATYYCQNVLRSPFTFGSGTKLEIK | – | – | 5.06 nM | 103 | 559 | 944 | 1170 | 21.2 | 10.8 | 10.8 | 0.608 nM | 0.000207 s⁻¹ | 340000 M⁻¹ s⁻¹ | – | – | absorbance at 450 nm (human CTLA4 [23]): 0.067
6 | control antibody 10D1 (antibody, V domains shown) VH: QVQLVESGGGVVQPGRSLRLSCAASGFTFSSYTMHWVRQAPGKGLEWVTFISYDGNNKYYADSVKGRFTISRDNSKNTLYLQMNSLRAEDTAIYYCARTGWLGPFDYWGQGTLVTVSS VL: not shown | – | – | – | – | – | – | – | – | – | – | – | – | – | 0.05 | 0.07 | EC50 (CTLA4-mFc [24]): 0.464 nM; EC50 (CTLA4-mFc [25]): 1.91 nM; EC50 (CTLA4-mFc [26]): 5.15 nM; EC50 (CTLA4-mFc [27]): 5.15 nM; EC50 (CTLA4-mFc [28]): 0.464 nM; EC50 (CTLA4-mFc [29]): 0.464 nM; EC50 (CTLA4-mFc [30]): 2.06 nM; EC50 (CTLA4-mFc [31]): 2.06 nM; EC50 (CTLA4-mFc [32]): 4.59 nM; EC50 (CTLA4-mFc [33]): 4.59 nM; EC50 (CTLA4-mFc [34]): 0.629 nM; EC50 (CTLA4-mFc [35]): 0.629 nM
